Measured values taken from article PMC12521282.

Key:
Settings in all cases: glycan lost; control: wild type
[1] = DSLNT formation, TLC and HPLC
[2] = NanoDSF, midpoint melting temperature
[3] = NanoDSF, onset of melting, Tris buffer
[4] = secreted protein yield, P. pastoris X-33
[5] = CD spectroscopy, secondary structure content
[6] = NanoDSF, onset and Tm, Tris and HEPES

B1: ST6GalNAc5 (Δ71ST6GalNAc5): N137Q/N161Q (protein)
parent chain: MKTLMRHGLAVCLALTTMCTSLLLVYSSLGGQKERPPQQQQQQQQQQQQASATGSSQPAAESSTQQRPGVPAGPRPLDGYLGVADHKPLKMHCRDCALVTSSGHLLHSRQGSQIDQTECVIRMNDAPTRGYGRDVGNRTSLRVIAHSSIQRILRNRHDLLNVSQGTVFIFWGPSSYMRRDGKGQVYNNLHLLSQVLPRLKAFMITRHKMLQFDELFKQETGKDRKISNTWLSTGWFTMTIALELCDRINVYGMVPPDFCRDPNHPSVPYHYYEPFGPDECTMYLSHERGRKGSHHRFITEKRVFKNWARTFNIHFFQPDWKPESLAINHPENKPVF
[1]
  enzymatic_activity, other: DSLNT produced: decreases, 0.189 ± 0.005 (4.5 µM enzyme) vs 0.202 ± 0.036 (1.0 µM enzyme)
[2]
  stability_or_folding, Tm: no change
[3]
  stability_or_folding, other: onset-of-melting temperature: decreases
[4]
  expression_or_secretion, fold_change: decreases
[5]
  structure_or_conformation: changes

B2: ST6GalNAc6 (Δ70ST6GalNAc6): N98Q/N149Q (protein)
parent chain: MACSRPPSQCEPTSLPPGPPAGRRHLPLSRRRREMSSNKEQRSAVFVILFALITILILYSSNSANEVFHYGSLRGRSRRPVNLKKWSITDGYVPILGNKTLPSRCHQCVIVSSSSHLLGTKLGPEIERAECTIRMNDAPTTGYSADVGNKTTYRVVAHSSVFRVLRRPQEFVNRTPETVFIFWGPPSKMQKPQGSLVRVIQRAGLVFPNMEAYAVSPGRMRQFDDLFRGETGKDREKSHSWLSTGWFTMVIAVELCDHVHVYGMVPPNYCSQRPRLQRMPYHYYEPKGPDECVTYIQNEHSRKGNHHRFITEKRVFSSWAQLYGITFSHPSWT
[1]
  enzymatic_activity: abolishes
[6]
  stability_or_folding, Tm: decreases, reduced by 7.3 (Tris), 10 (HEPES) vs 56.8
[4]
  expression_or_secretion, fold_change: decreases
[5]
  structure_or_conformation: changes
